{
  "source": "paper PMC8040265",
  "about": "“A polysaccharide utilization locus from the gut bacterium Dysgonomonas mossii encodes functionally distinct carbohydrate esterases” (The Journal of Biological Chemistry, 2021)",
  "test_in_all_cases": "model substrate hydrolysis, Michaelis-Menten fit",
  "type_in_all_cases": "biochemical, Dysgonomonas mossii",
  "details_in_all_cases": "37 °C",
  "key": {"[1]": {"substrate": "CC(=O)Oc1ccc2c(C)cc(=O)oc2c1", "from_the_text": "(§1) model substrate hydrolysis, Michaelis-Menten fit on DmCE1B"}, "[2]": {"substrate": "COC(=O)/C=C/c1cc(OC)c(O)c(OC)c1", "from_the_text": "as §1"}, "[3]": {"substrate": "CC(=O)Oc1ccc2c(C)cc(=O)oc2c1", "from_the_text": "model substrate hydrolysis, Michaelis-Menten fit on DmCE1B_ct", "remark": "listed apart in the source"}, "[4]": {"substrate": "CC(=O)Oc1ccc([N+](=O)[O-])cc1", "from_the_text": "(§2) model substrate hydrolysis, Michaelis-Menten fit on DmCE6A"}, "[5]": {"substrate": "CC(=O)Oc1ccc2c(C)cc(=O)oc2c1", "from_the_text": "as §2", "remark": "listed apart in the source"}, "[6]": {"substrate": "CC(=O)Oc1ccc([N+](=O)[O-])cc1", "from_the_text": "(§3) model substrate hydrolysis, Michaelis-Menten fit on DmCE1A", "remark": "listed apart in the source"}, "[7]": {"substrate": "CC(=O)Oc1ccc2c(C)cc(=O)oc2c1", "from_the_text": "as §3", "remark": "listed apart in the source"}, "[8]": {"substrate": "COC(=O)/C=C/c1cc(OC)c(O)c(OC)c1", "from_the_text": "as §3", "remark": "listed apart in the source"}, "[9]": {"substrate": "CC(=O)Oc1ccc2c(C)cc(=O)oc2c1", "from_the_text": "(§4) model substrate hydrolysis, Michaelis-Menten fit on DmCE1B_nt", "remark": "listed apart in the source"}, "[10]": {"substrate": "COC(=O)/C=C/c1cc(OC)c(O)c(OC)c1", "from_the_text": "as §4", "remark": "listed apart in the source"}, "[11]": {"substrate": "COC(=O)/C=C/c1ccc(O)c(OC)c1", "from_the_text": "as §4"}, "[12]": {"substrate": "COC(=O)/C=C/c1ccc(O)cc1", "from_the_text": "as §4"}},
  "data": [
    {"protein": "DmCE1B (Dysgonomonas mossii DSM 22836) (protein, full length, signal peptide removed; CE1-CBM48-CE1; dimer in solution; pET28a-TEVc, IMAC purified from E. coli BL21(DE3)) ISQNYKSVPNGYDIPRTGISHGQIDTVTYYSKTVDTNRKALVYTPPGYSKNKQYPVLYLLHGIGGDEKEWFSHGQPQVILDNLYADKKIVPMIVVLPNGRAMKDDRAIGNIMEAPKVEAFATFEKDLLNDLIPFIQKTYPVLKNQENRALAGLSMGGGQSLNFGLGNLDIFAWVGGFSSAPNTKTPEVLVPNPDDAKKKLKLLWISCGDKDGLLSFSKRTHDYLAKNQVPHVYQVIPNGYHDFNIWKQNLYMFSQLLFKPVTADLIEQYSYIPEEAEVGISASTNIPGAQYPQILSGNRVLFRIKAPDAKRVQVDLGKKYDMVREEEGSWAITTDPIVEGFHYYSILIDGVAVCDPASRTFYGMSRMASGIEIPEEGVDYYNLKNVPHGQIRQIRYFSDVTKAWRRAFVYTPAGYDANTSQRYPVLYLQHGGGEDETGWPNQGKMDAIIDNLIAEGKAKPMIVVMDNGYAVDPSASSANSPQGLRGLFQNSALEKVFINEIIPLVDKEFRTIADRDHRAMAGLSMGGFQAFQIAMTNLDKFAYVGGFSGGGIIEQGGDFSKMYNNVWSDVDTFNKRVKLIYLSIGTAEPTNMYQTVNNFHKEFEKAGIKHVYYESPGTSHEWLTWRRSLNQFAELLFK", "values": [
      {"measurement": "Km", "setting": "[1]", "result": "370 ± 60", "unit": "µM"},
      {"measurement": "kcat", "setting": "[1]", "result": "870 ± 3", "unit": "s⁻¹"},
      {"measurement": "kcat/Km", "setting": "[1]", "result": "2.3e+06 ± 400000", "unit": "M⁻¹ s⁻¹"},
      {"measurement": "Km", "setting": "[2]", "result": "360 ± 100", "unit": "µM"},
      {"measurement": "kcat", "setting": "[2]", "result": "5 ± 0.83", "unit": "s⁻¹"},
      {"measurement": "kcat/Km", "setting": "[2]", "result": "14000 ± 4500", "unit": "M⁻¹ s⁻¹"}
    ]},
    {"protein": "DmCE1B_ct (Dysgonomonas mossii DSM 22836) (protein, dimer; IMAC purified from E. coli BL21(DE3)) AEVGISASTNIPGAQYPQILSGNRVLFRIKAPDAKRVQVDLGKKYDMVREEEGSWAITTDPIVEGFHYYSILIDGVAVCDPASRTFYGMSRMASGIEIPEEGVDYYNLKNVPHGQIRQIRYFSDVTKAWRRAFVYTPAGYDANTSQRYPVLYLQHGGGEDETGWPNQGKMDAIIDNLIAEGKAKPMIVVMDNGYAVDPSASSANSPQGLRGLFQNSALEKVFINEIIPLVDKEFRTIADRDHRAMAGLSMGGFQAFQIAMTNLDKFAYVGGFSGGGIIEQGGDFSKMYNNVWSDVDTFNKRVKLIYLSIGTAEPTNMYQTVNNFHKEFEKAGIKHVYYESPGTSHEWLTWRRSLNQFAELLFK", "values": [
      {"measurement": "Km", "setting": "[3]", "result": "420 ± 100", "unit": "µM"},
      {"measurement": "kcat", "setting": "[3]", "result": "11 ± 0.71", "unit": "s⁻¹"},
      {"measurement": "kcat/Km", "setting": "[3]", "result": "26000 ± 6600", "unit": "M⁻¹ s⁻¹"}
    ]},
    {"protein": "DmCE6A (Dysgonomonas mossii DSM 22836) (protein, signal peptide removed; single CE6 domain; pET28a-TEVc, IMAC purified from E. coli BL21(DE3)) QDKFHVFLCFGQSNMEGHAKIEAQDTIDIDGRFMMLQTVDCPELGRFKGNWYKAIPPLARCHTGLSPADYFGRTMVANLPSDTKVGVINVAVGGCRIELFDKENFQSYVDQSPEWLKNMVNEYDGNPYVRLIEMAKLAQSQGGVIKGILLHQGESNNGETDWPEKVRKVYDNILKDLNFEPNSIPLLAGELLDEEQYGACANMNLIINTLPNVIPNAHVISSKGCEGVKDRLHFSAAGYRTLGSRYAEKMLQLYNENSLKK", "values": [
      {"measurement": "Km", "setting": "[4]", "result": "180 ± 10", "unit": "µM"},
      {"measurement": "kcat", "setting": "[4]", "result": "59 ± 0.87", "unit": "s⁻¹"},
      {"measurement": "kcat/Km", "setting": "[4]", "result": "320000 ± 20000", "unit": "M⁻¹ s⁻¹"},
      {"measurement": "Km", "setting": "[5]", "result": "29 ± 3", "unit": "µM"}
    ]},
    {"protein": "DmCE1A (Dysgonomonas mossii DSM 22836) (protein, signal peptide removed; N-terminal CBM48 + CE1 domain; pET28a-TEVc, IMAC purified from E. coli BL21(DE3)) QDLEGSISSEYNIPEGQYPIVNKDLSATFRIQAPSAQSMQVDICGKKYPMTKDAAGIWEATTDPLVVGFHYYFLLIDGVSVVDPASQTFFGCGRMASGIEIPEPRAESAYYSYQKDIPHGQVRECYYFSKVEGKQRRCFLYTPAEYETNPTKRYPVLYLQHGMGEDETGWSRQGKMAFILDNQISEKKCVPMIVVMDYGNCGYIHGTKKGESQKEFGALFTPILINDIIPYIDSNFRTLSDRDNRAMAGLSWGGHQAFETTLNNIDKFSHIGAFSGALFFLKEDNLKKAYNGVFAQPNVFNKKVHTLFLGMGSEEGMGSKRISEFLKANGINNTYYESAGTHHEWLTWRRCLNQFLPLIFKQN", "values": [
      {"measurement": "Km", "setting": "[6]", "result": "4400 ± 670", "unit": "µM"},
      {"measurement": "kcat", "setting": "[6]", "result": "1.03 ± 0.07", "unit": "s⁻¹"},
      {"measurement": "kcat/Km", "setting": "[6]", "result": "230 ± 40", "unit": "M⁻¹ s⁻¹"},
      {"measurement": "Km", "setting": "[7]", "result": "550 ± 60", "unit": "µM"},
      {"measurement": "kcat", "setting": "[7]", "result": "38.6 ± 1.26", "unit": "s⁻¹"},
      {"measurement": "kcat/Km", "setting": "[7]", "result": "70000 ± 8000", "unit": "M⁻¹ s⁻¹"},
      {"measurement": "Km", "setting": "[8]", "result": "180 ± 40", "unit": "µM"},
      {"measurement": "kcat", "setting": "[8]", "result": "0.13 ± 0.01", "unit": "s⁻¹"},
      {"measurement": "kcat/Km", "setting": "[8]", "result": "700 ± 200", "unit": "M⁻¹ s⁻¹"}
    ]},
    {"protein": "DmCE1B_nt (Dysgonomonas mossii DSM 22836) (protein, N-terminal CE1 domain + CBM48 (CBM48 is residues 294-393), signal peptide removed; IMAC purified from E. coli BL21(DE3)) ISQNYKSVPNGYDIPRTGISHGQIDTVTYYSKTVDTNRKALVYTPPGYSKNKQYPVLYLLHGIGGDEKEWFSHGQPQVILDNLYADKKIVPMIVVLPNGRAMKDDRAIGNIMEAPKVEAFATFEKDLLNDLIPFIQKTYPVLKNQENRALAGLSMGGGQSLNFGLGNLDIFAWVGGFSSAPNTKTPEVLVPNPDDAKKKLKLLWISCGDKDGLLSFSKRTHDYLAKNQVPHVYQVIPNGYHDFNIWKQNLYMFSQLLFKPVTADLIEQYSYIPEEAEVGISASTNIPGAQYPQILSGNRVLFRIKAPDAKRVQVDLGKKYDMVREEEGSWAITTDPIVEGFHYYSILIDGVAVCDPASRTFYGMSRMASGIEIPE", "values": [
      {"measurement": "Km", "setting": "[9]", "result": "300 ± 40", "unit": "µM"},
      {"measurement": "kcat", "setting": "[9]", "result": "630 ± 22", "unit": "s⁻¹"},
      {"measurement": "kcat/Km", "setting": "[9]", "result": "2.1e+06 ± 300000", "unit": "M⁻¹ s⁻¹"},
      {"measurement": "Km", "setting": "[10]", "result": "290 ± 70", "unit": "µM"},
      {"measurement": "kcat", "setting": "[10]", "result": "2.7 ± 0.34", "unit": "s⁻¹"},
      {"measurement": "kcat/Km", "setting": "[10]", "result": "9200 ± 2400", "unit": "M⁻¹ s⁻¹"},
      {"measurement": "Km", "setting": "[11]", "result": "160 ± 30", "unit": "µM"},
      {"measurement": "kcat", "setting": "[11]", "result": "1.8 ± 0.13", "unit": "s⁻¹"},
      {"measurement": "kcat/Km", "setting": "[11]", "result": "11000 ± 2000", "unit": "M⁻¹ s⁻¹"},
      {"measurement": "Km", "setting": "[12]", "result": "310 ± 90", "unit": "µM"},
      {"measurement": "kcat", "setting": "[12]", "result": "0.61 ± 0.1", "unit": "s⁻¹"},
      {"measurement": "kcat/Km", "setting": "[12]", "result": "2000 ± 700", "unit": "M⁻¹ s⁻¹"}
    ]}
  ]
}
